Source: publication PMC7021899, “N-terminal domain of the architectural protein CTCF has similar structural organization and ability to self-association in bilaterian organisms” (Scientific Reports, 2020)

How the values were obtained:
[1] = target: N-terminal domain of Drosophila virilis CTCF (1-144 aa), without Thioredoxin (Drosophila virilis); experiment: SAXS; BM29 BioSAXS beamline (ESRF), 277 K, at least two concentrations; molecular mass from extrapolated I0 and protein standards
[2] = target: Thioredoxin-tagged N-terminal domain of Drosophila virilis CTCF (1-144 aa) (Drosophila virilis); experiment: cross-linking; Thioredoxin-tagged NTDs, increasing concentrations of glutaraldehyde
[3] = target: the molecule itself; experiment: as above
[4] = target: the molecule itself; experiment: SAXS; BM29 BioSAXS beamline (ESRF), 277 K, at least two concentrations; molecular mass from extrapolated I0 and protein standards

N-terminal domain of Drosophila virilis CTCF (1-144 aa), without Thioredoxin (domain or fragment)
stoichiometry N [1]: 2

Thioredoxin-tagged N-terminal domain of Drosophila virilis CTCF (1-144 aa) (domain or fragment)
stoichiometry N [2]: 2

B1: Thioredoxin-tagged N-terminal domain of Drosophila melanogaster CTCF (1-163 aa) (domain or fragment, UniProt Q9VS55 1-163, looked up)
chain: MPRRTKKDEDPEDLQTFLNNFHKEIEGNSDEKVVNTILEAISAEAIDLDENGAEAGGSKPMEEAEADLDHAEEAEEEEEDDEDKYFIDDEGNCYIKTTPKKQKELQKKLKQAAAKPGKATRSVVSTATNKSINLRPAKSTPKATTSKPPPEPKAISVRPARAA
notes: CTCF, Drosophila melanogaster, N-terminal domain, residues 1-163; also called dmCTCF NTD; Thioredoxin-tagged Drosophila CTCF NTD
stoichiometry N [3]: 2

B2: N-terminal domain of Drosophila melanogaster CTCF (1-163 aa), without Thioredoxin (domain or fragment, UniProt Q9VS55 1-163, looked up)
chain: B1 chain
notes: Modified pET32a(+) with TEV-cleavable Thioredoxin-6xHis-tag. 'Without Thioredoxin' is said for SEC; for SAXS and DLS the tag state is inferred from the printed monomer mass (18 kDa); also called dmCTCF NTD; dmCTCF-NTD
stoichiometry N [4]: 4
